Changes are numbered by the printed parent chain.
T1: Nectin-4 on T-47D cells (human, UniProt Q96NY8 32-510)
T1 construct: whole, on cells; endogenous expression; also called T-47D cells positive for Nectin-4 expression
T1 sequence (looked up): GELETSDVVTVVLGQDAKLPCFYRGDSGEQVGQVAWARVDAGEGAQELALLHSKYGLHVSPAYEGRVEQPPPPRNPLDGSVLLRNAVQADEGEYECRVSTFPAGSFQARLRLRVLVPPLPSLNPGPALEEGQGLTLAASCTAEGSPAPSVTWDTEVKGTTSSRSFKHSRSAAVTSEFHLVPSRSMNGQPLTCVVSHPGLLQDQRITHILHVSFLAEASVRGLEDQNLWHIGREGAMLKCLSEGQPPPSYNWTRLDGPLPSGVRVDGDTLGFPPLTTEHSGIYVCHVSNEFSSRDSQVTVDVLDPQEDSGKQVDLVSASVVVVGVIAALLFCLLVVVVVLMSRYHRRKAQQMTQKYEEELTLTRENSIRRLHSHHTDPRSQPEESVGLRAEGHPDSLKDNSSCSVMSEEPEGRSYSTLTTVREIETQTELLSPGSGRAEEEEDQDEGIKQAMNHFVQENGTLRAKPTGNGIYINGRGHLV

T2: hNectin-2 (ACRO, PV2-H52E2) (human, UniProt Q92692 32-360)
T2 construct: bought
T2 sequence (looked up): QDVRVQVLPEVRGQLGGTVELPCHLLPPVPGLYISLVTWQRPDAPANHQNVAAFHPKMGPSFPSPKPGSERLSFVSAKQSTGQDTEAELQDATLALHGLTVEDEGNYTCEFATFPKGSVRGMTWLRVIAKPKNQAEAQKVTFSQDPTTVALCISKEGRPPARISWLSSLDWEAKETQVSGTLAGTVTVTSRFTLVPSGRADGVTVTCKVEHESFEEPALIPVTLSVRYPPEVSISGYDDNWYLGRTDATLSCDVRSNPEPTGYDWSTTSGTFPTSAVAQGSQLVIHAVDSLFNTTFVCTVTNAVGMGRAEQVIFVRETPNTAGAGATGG

T3: hNectin-1 (ACRO, PV1-H5223) (human, UniProt Q15223 31-334)
T3 construct: bought
T3 sequence (looked up): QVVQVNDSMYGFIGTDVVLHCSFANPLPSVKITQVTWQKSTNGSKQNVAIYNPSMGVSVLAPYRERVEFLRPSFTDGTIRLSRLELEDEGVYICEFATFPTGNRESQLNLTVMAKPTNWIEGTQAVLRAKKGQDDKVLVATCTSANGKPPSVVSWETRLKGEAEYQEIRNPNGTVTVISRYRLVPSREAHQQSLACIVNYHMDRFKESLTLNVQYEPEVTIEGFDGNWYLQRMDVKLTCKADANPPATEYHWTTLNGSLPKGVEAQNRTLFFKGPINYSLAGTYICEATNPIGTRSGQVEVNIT

B1: antibody 1F3 (antibody, human IgG1, kappa, V domains shown)
VH: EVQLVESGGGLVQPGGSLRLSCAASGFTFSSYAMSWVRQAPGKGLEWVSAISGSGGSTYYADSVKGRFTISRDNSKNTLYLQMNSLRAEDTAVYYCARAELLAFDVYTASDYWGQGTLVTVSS
VL: DIQMTQSPSSLSASVGDRVTITCRASQGISSYLAWYQQKPGKAPKLLIYAASSLQSGVPSRFSGSGSGTDFTLTISSLQPEDFATYYCQQHYTTPPTFGQGTKVEIKR
notes: intact antibody
B2: antibody 1G8 (antibody, human IgG1, kappa, V domains shown)
VH: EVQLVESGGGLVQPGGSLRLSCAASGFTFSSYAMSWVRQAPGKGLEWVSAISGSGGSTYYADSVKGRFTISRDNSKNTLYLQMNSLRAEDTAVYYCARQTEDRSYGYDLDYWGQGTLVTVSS
VL: B1 VL
notes: intact antibody
B3: reference antibody ASG-22 (antibody, human IgG1, kappa, V domains shown)
VH: EVQLVESGGGLVQPGGSLRLSCAASGFTFSSYNMNWVRQAPGKGLEWVSYISSSSSTIYYADSVKGRFTISRDNAKNSLSLQMNSLRDEDTAVYYCARAYYYGMDVWGQGTLVTVSS
VL: B1 VL with L11V, S31G, Y32W, L46F, S53T, H91A, Y92N, T93S, T94F, Q100G
B4: antibody 10F4 (antibody, human IgG1, kappa, V domains shown)
VH: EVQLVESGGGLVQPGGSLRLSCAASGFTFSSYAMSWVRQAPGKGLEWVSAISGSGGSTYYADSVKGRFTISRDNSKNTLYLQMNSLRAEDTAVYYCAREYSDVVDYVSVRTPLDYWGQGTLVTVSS
VL: B1 VL
notes: intact antibody
B5: antibody 10A4 (antibody, human IgG1, kappa, V domains shown)
VH: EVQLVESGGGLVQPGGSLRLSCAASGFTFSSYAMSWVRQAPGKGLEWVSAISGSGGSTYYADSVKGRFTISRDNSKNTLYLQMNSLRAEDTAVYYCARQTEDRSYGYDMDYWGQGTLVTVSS
VL: B1 VL
notes: intact antibody
B6: antibody 1B4 (antibody, human IgG1, kappa, V domains shown)
VH: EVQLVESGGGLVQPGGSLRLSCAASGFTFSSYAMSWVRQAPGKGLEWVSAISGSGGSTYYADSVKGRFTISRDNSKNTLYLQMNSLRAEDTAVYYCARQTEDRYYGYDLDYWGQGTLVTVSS
VL: B1 VL
notes: intact antibody
B7: antibody 3A10 (antibody, human IgG1, kappa, V domains shown)
VH: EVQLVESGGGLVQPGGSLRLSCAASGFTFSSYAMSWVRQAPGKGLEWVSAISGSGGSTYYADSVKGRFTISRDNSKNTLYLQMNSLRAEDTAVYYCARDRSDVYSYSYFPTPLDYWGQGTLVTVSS
VL: B1 VL
notes: intact antibody
B8: antibody 1F3-1E1 (antibody, human IgG1, kappa, V domains shown)
VH: EVQLVESGGGLVQPGGSLRLSCAASGFSFDDYAMSWVRQAPGKGLEWVSIIYPTGSTNYYADSVKGRFTISRDNSKNTLYLQMNSLRAEDTAVYYCARAELLAFDVYTASDYWGQGTLVTVSS
VL: B1 VL
notes: intact antibody
B9: antibody 10F4-1 (antibody, human IgG1, kappa, V domains shown)
VH: EVQLVESGGGLVQPGGSLRLSCAASGDSFTNYWMSWVRQAPGKGLEWVSGISQGGSYAYYADSVKGRFTISRDNSKNTLYLQMNSLRAEDTAVYYCAREYSDVVDYVSVRTPLDYWGQGTLVTVSS
VL: B1 VL
notes: intact antibody
B10: antibody 1F3-2B1 (antibody, human IgG1, kappa, V domains shown)
VH: B8 VH with F27Y, S28N, D31N, I50G, Y52K, T54D, G55S, S56A, N58T
VL: B1 VL
notes: intact antibody
B11: antibody 1F3-1B1 (antibody, human IgG1, kappa, V domains shown)
VH: B8 VH with S28T, D30G, D31T, A33G, I50G, Y52K, T54G, G55D, N58T
VL: B1 VL
notes: intact antibody
B12: antibody 1F3-2E8 (antibody, human IgG1, kappa, V domains shown)
VH: EVQLVESGGGLVQPGGSLRLSCAASGYSFSDYGMSWVRQAPGKGLEWVSWISPSKGSASYADSVKGRFTISRDNSKNTLYLQMNSLRAEDTAVYYCARAELLAFDVYTASDYWGQGTLVTVSS
VL: B1 VL
notes: intact antibody
B13: antibody 1F3-2F3 (antibody, human IgG1, kappa, V domains shown)
VH: B12 VH with Y27F, S28N, W50R, S52D, P53W, S54D, K55G, S57N, A58T, S59R
VL: B1 VL
notes: intact antibody
B14: antibody 10F4-5 (antibody, human IgG1, kappa, V domains shown)
VH: EVQLVESGGGLVQPGGSLRLSCAASGFIFDGYDMSWVRQAPGKGLEWVSVIKDHGGYKFYADSVKGRFTISRDNSKNTLYLQMNSLRAEDTAVYYCAREYSDVVDYVSVRTPLDYWGQGTLVTVSS
VL: B1 VL
notes: intact antibody
B15: antibody 1F3-1G11 (antibody, human IgG1, kappa, V domains shown)
VH: B12 VH with S30T, D31G, W50G, K55G, S57T, A58I, S59G
VL: B1 VL
notes: intact antibody
B16: antibody 10F4-3 (antibody, human IgG1, kappa, V domains shown)
VH: EVQLVESGGGLVQPGGSLRLSCAASGFSFGDFAMSWVRQAPGKGLEWVSVIDGHTAYNSYADSVKGRFTISRDNSKNTLYLQMNSLRAEDTAVYYCAREYSDVVDYVSVRTPLDYWGQGTLVTVSS
VL: B1 VL
notes: intact antibody

molecular target: T1, Nectin-4 on T-47D cells; assay: FACS on T-47D cells, 10 µg/mL on ice, 0 h point of the endocytosis assay
Description: (§1) In this assay, the relative amount of antibodies remaining on the cell surface after co-incubation at 37° C. for a certain period of time was detected by FACS to reflect the endocytosis efficiency. The procedures are briefly described as follows: T-47D cells (human ductal breast cancer cells, derived from the Cell Bank of Chinese Academy of Sciences, Cat. No. TCHu 87); the antibodies were adjusted to 10 μg/mL and co-incubated with the cells on ice for 1 h; the cells were washed 3 times with pre-cooled PBS, and then placed at 37° C. and incubated for 0 h, 2 h and 4 h; 0.2% N₃Na was added to stop the endocytosis reaction; the cells were washed with PBS thrice, followed by the addition of the PE-labeled anti-human Fc secondary antibody (Invitrogen 12-4998-82); the cells were incubated at 4° C. for 30 min; the red fluorescence signal was detected on a flow cytometer.

Row | MFI (0 h) [MFI] | Binder
1 | 121000 | B1
2 | 105000 | B2
3 | 107000 | B3
4 | 104000 | B4
5 | 107000 | B5
6 | 108000 | B6
7 | 105000 | B7

molecular target: T2, hNectin-2 (ACRO, PV2-H52E2); assay: ELISA, antigen coated, HRP-labeled anti-human-Kappa secondary antibody
Description: (§2) The binding activity of intact antibodies was detected by ELISA. The procedures are briefly described as follows: the hNectin-4-His antigen protein of Example 1 was immobilized at a concentration of 1 μg/mL on a plate; the plate was blocked with skimmed milk powder overnight, and then, serially diluted antibodies of interest were added for co-incubation (antibodies in Table 9 were serially 2-fold diluted from 2 μg/mL; antibodies in Tables 10 and 11 were serially 3-fold diluted from 10 μg/mL) at room temperature for 2 h; then an HRP-labeled anti-human-kappa (Sigma, A7164) secondary antibody was added for co-incubation for 1 h, followed by the addition of TMB (Huzhou InnoReagents, TMB-S-001) for chromogenic reaction, and the reaction was stopped with 0.1 M H₂SO₄; after the absorbance at OD450 was read on a microplate reader, the binding EC₅₀ value for each antibody was calculated by four-parameter fitting, and the binding activities of the antibodies were compared.
(§3) In this assay, the binding of different antibodies to human Nectin-4 homologous proteins hNectin-1 (ACRO, PV1-H5223), hNectin-2 (ACRO, PV2-H52E2), hNectin-3 (ACRO, PV3-H52E4), and hNectin-4-His was detected by ELISA to determine the specificity of the antibodies. For the methodology and procedures, see Example 4. Antigens of interest ([…]) were immobilized; after blocking, serially diluted antibodies (2-fold serially diluted from […]) were added, and HRP-labeled anti-human-Kappa secondary antibody was added for chromogenic reaction.

Row | binding result | Binder
8 | no binding (tested: 2000 ng/mL) | B1
9 | no binding (tested: 2000 ng/mL) | B2
10 | no binding (tested: 2000 ng/mL) | B4

molecular target: T3, hNectin-1 (ACRO, PV1-H5223); assay: as above
Description: as §2, §3

Row | binding result | Binder
11 | no binding (tested: 2000 ng/mL) | B1
12 | no binding (tested: 2000 ng/mL) | B2
13 | no binding (tested: 2000 ng/mL) | B4

molecular target: T1, Nectin-4 on T-47D cells; assay: FACS on T-47D cells, 10 µg/mL on ice, 0 h point of the endocytosis assay; remark: another data set of the same source
Description: as §1

Row | MFI (0 h) [MFI] | Binder
14 | 58600 | B3
15 | 73400 | B8
16 | 58600 | B9
17 | 59400 | B10
18 | 65300 | B11
19 | 58200 | B12
20 | 69000 | B13
21 | 63400 | B14
22 | 60500 | B15
23 | 61200 | B16

— US20250388667A1 (BIO THERA SOLUTIONS, published 2025)
